target: TOX (UniProt Q66JW3); experiment: TOX IP-MS, EL4 nuclear extract, MiST; row of the bait itself
Sequence (Q66JW3 whole entry): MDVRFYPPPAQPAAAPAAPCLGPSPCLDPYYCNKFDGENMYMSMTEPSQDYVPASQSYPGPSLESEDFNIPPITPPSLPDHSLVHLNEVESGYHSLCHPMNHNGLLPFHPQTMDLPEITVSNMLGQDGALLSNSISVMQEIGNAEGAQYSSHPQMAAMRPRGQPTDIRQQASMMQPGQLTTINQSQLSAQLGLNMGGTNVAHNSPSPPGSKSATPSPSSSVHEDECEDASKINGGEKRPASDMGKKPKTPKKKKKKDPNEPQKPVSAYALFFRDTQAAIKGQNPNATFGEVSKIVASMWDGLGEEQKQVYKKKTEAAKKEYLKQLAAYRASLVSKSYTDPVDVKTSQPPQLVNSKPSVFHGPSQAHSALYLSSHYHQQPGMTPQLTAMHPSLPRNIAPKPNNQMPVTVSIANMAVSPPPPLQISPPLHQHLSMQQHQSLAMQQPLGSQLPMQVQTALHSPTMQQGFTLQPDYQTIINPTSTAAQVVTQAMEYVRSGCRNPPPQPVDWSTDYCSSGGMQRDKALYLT

Substance	Abundance	MiST Score	Reproducibility	Specificity
anti-TOX antibody (Abcam, ab155768)	0.00704	0.976	0.964	0.99

target: TOX (UniProt Q66JW3); experiment: anti-TOX IP from EL4 nuclear extract, LC-MS/MS, MiST vs IgG control

Substance	Abundance	MiST Score	Reproducibility	Specificity
Actr5 (from UniProt Q80US4 1-605)	9e-06	0.753	0.979	0.658
Ap2a1 (from UniProt P17426 1-977)	2.47e-06	0.754	0.846	0.719
Bclaf1 (from UniProt Q8K019 1-919)	6.73e-05	0.756	0.872	0.71
Ccdc86 (from UniProt Q9JJ89 1-426)	3.82e-05	0.751	0.964	0.662
Cnot10 (from UniProt Q8BH15 2-744)	8.51e-06	0.751	0.946	0.669
Cwc15 (from UniProt Q9JHS9 2-229)	9.35e-05	0.756	0.814	0.736
Dld (from UniProt O08749 36-509) (enzyme)	1.87e-05	0.76	0.898	0.704
Ebna1bp2 (from UniProt Q9D903 1-306)	9.4e-05	0.752	0.984	0.654
Eif3a (from UniProt P23116 1-1344)	1.17e-05	0.764	0.795	0.757
Gatad2a (from UniProt Q8CHY6 1-629)	1.98e-05	0.76	0.908	0.7
Gatad2b (from UniProt Q8VHR5 1-594)	1.65e-05	0.752	0.863	0.708
Nol7 (from UniProt Q9D7Z3 1-254)	0.000128	0.757	0.972	0.666
Pabpn1 (from UniProt Q8CCS6 2-302)	8.22e-05	0.759	0.992	0.66
Paxbp1 (from UniProt P58501 1-919)	1.83e-06	0.75	0.516	0.862
Pnn (from UniProt O35691 2-725)	7.35e-05	0.762	0.681	0.805
Pop1	2.18e-06	0.754	0.906	0.693
Raver1 (from UniProt Q9CW46 2-748)	4.89e-05	0.762	0.839	0.734
Rbm25 (from UniProt B2RY56 1-838)	9.24e-06	0.755	0.601	0.831
Rrp1 (from UniProt P56183 1-494)	9e-06	0.753	0.976	0.659
Rsl1d1 (from UniProt Q8BVY0 1-452)	0.000211	0.759	0.984	0.665
Soat1 (from UniProt Q61263 1-540) (enzyme)	5.75e-06	0.762	0.249	1
Thoc6 (from UniProt Q5U4D9 1-341)	3.97e-05	0.76	0.994	0.661
Top3b (from UniProt Q9Z321 1-862) (enzyme)	8.1e-07	0.752	0.541	0.854
Yme1l1 (from UniProt O88967 1-715) (enzyme)	1.45e-05	0.75	0.988	0.65

— patent US20210071139A1
